Target: the molecule itself
Assay: crystal structure

B1: mouse Nudt12 catalytic domain (residues 126-462), E219A/E220A/E221A triple mutant (domain or fragment, UniProt Q9DCN1 126-462, looked up)
chain: LDRRSDKRNNSDWLQAKESHPTTVYLLFSDLNPLVTLGGNKESSQQPEVRLCQLNYPDVKGYLAQPEKITLVFLGVELEMRKGSPAQAGGVPEAAADGLVAWFALGIEPGAAEEFKQRHENCYFLHPPMPALLQLKEKEAGVVAQARSVLAWHSRYKFCPTCGSATKIEEGGYKRVCVRETCPSLQGVHNTSYPRVDPVVIMQVIHPDGTKCLLGRQKRFPPGMFTCLAGFIEPGETIEDAVRREVEEESGVKVGHVQYVSCQPWPMPSSLMIGCLAVAVSTEIKVDKNEIEDARWFTREQVVDVLTKGKQQAFFVPPSRAIAHQLIKHWVGMNPNL
stoichiometry N: 2

— doi:10.1101/474478 (bioRxiv, 2018)
